According to patent publication US20220332804A1 (CSL INNOVATION, published 2022):

Columns and labels:
Assay in all cases: SPR, antibody captured, C2 as analyte;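 note: biacore at 37 °C, anti-C2 mAbs held by immobilised goat anti-human IgG, C2 alanine or serine mutants injected, double-referenced sensorgrams fitted to a 1:1 kinetic or steady-state model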
human C2 N327A = target: T1, human C2 N327A (human, UniProt P06681 21-752)
T1 sequence: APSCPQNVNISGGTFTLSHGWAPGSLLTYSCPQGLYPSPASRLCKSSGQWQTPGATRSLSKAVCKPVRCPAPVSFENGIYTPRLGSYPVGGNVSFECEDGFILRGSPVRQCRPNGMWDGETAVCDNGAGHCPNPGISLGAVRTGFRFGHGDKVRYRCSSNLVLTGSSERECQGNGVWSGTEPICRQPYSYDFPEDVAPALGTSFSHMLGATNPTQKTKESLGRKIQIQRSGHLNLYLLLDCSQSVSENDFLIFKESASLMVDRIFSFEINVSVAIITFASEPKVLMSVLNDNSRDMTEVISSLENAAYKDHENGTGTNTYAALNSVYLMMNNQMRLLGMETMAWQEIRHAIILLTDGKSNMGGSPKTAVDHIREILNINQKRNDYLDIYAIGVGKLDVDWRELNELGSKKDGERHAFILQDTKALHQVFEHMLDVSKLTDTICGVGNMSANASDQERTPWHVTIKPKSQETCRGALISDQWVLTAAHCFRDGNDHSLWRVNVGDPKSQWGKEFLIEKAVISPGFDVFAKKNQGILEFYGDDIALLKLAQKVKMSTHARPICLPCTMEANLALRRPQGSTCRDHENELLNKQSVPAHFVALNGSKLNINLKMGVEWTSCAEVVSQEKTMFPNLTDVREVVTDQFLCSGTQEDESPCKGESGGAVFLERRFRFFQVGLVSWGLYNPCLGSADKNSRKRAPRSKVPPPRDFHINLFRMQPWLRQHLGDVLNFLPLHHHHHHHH
Protocol: (§1) Surface plasmon resonance (SPR, Biacore) was used for all binding affinity analyses. In brief, goat anti-human IgG was directly immobilised onto the carboxymethyl dextran surface of CM5 sensorchips to approximately 12,000 RU using standard NHS/EDC chemistry at pH 5. The immobilised antibody surface was pre-conditioned with ten injections of polyclonal human IgG (Privigen 60 s) prepared at 1 μg/mL. Ligands (anti-C2 mAbs) were captured at the beginning of each cycle as described below. An adjacent spot or flow cell in which only Polyclonal IgG was capture was used as a reference surface. The goat anti-human IgG Fc antibody surface was regenerate in 100 mM H3PO4, injected for 45 seconds at the end of each cycle. Experiments were performed at 37° C. and the flow rate of each experiment was kept constant at 30 μL/min.
(§2) Sensogram data was double-referenced against a reference anti-IgG surface (i.e. minus anti-C2 mAb) and blank buffer injections obtained within each experiment. The binding data was fit to 1:1 (kinetic or steady-state) model using local Rmax and null refraction index (RI=0) when appropriate. Buffers and solutions were filtered (0.22 μm) prior to use.

human C2 D419A = target: T2, human C2 D419A (human, UniProt P06681 21-752)
T2 sequence: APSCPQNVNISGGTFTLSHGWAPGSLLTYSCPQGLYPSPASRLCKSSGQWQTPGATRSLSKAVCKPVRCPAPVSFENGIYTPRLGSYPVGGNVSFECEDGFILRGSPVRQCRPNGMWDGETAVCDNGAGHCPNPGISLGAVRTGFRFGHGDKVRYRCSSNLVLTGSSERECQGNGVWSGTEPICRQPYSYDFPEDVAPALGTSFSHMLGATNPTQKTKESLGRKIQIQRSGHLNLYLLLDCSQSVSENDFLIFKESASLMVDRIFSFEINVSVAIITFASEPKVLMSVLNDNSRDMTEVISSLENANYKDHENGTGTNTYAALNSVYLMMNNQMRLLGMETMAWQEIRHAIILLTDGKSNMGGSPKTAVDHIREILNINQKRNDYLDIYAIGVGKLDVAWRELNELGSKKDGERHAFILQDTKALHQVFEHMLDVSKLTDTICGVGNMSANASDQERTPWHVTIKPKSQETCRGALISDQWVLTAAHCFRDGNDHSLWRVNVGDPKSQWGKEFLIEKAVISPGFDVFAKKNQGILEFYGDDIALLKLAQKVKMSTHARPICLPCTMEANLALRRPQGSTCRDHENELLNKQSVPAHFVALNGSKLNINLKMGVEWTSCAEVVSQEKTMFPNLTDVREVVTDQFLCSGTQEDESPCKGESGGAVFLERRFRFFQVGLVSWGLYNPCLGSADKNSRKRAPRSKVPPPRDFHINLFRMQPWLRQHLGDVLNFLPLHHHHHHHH
Protocol: as §1, §2

human C2 V465A = target: T3, human C2 V465A (human, UniProt P06681 21-752)
T3 sequence: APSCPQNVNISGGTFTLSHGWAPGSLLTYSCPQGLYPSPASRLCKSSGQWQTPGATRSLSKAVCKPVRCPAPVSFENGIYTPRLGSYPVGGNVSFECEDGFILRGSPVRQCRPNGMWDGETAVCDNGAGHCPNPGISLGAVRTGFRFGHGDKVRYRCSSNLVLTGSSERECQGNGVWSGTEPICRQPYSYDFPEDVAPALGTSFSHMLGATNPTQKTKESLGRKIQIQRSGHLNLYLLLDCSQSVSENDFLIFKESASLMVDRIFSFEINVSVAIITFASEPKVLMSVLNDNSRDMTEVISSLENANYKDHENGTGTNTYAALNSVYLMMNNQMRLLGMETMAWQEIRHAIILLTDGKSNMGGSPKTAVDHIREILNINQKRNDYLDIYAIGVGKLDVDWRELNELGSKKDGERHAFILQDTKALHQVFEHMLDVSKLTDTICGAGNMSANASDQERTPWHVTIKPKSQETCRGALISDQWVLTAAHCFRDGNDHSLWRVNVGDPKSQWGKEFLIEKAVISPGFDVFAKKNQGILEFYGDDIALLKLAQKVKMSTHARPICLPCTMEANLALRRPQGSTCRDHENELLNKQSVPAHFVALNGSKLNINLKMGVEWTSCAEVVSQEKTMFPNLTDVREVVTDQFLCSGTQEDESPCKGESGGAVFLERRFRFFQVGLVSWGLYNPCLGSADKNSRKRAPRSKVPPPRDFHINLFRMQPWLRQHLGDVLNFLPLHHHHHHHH
Protocol: as §1, §2

human C2 S469A = target: T4, human C2 S469A (human, UniProt P06681 21-752)
T4 sequence: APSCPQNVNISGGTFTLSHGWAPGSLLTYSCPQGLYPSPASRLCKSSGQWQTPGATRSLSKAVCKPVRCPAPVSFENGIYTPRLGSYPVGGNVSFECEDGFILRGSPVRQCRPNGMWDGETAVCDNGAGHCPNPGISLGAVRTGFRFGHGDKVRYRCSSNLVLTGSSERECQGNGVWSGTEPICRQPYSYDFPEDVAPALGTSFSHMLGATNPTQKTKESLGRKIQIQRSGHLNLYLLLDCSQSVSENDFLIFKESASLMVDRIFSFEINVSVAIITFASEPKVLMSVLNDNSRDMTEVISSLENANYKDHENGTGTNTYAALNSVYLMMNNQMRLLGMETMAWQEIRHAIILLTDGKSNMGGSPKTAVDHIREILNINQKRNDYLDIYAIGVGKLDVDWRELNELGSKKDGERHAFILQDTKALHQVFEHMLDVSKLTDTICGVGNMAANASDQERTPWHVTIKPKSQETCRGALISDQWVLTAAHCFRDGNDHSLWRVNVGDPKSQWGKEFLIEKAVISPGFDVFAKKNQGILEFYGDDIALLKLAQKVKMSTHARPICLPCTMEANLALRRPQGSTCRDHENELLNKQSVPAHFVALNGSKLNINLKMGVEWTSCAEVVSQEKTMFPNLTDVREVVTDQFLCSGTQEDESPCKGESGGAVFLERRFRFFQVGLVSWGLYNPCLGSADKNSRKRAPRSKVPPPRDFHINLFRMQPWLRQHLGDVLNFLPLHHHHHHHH
Protocol: as §1, §2

B1: RF16-242 (antibody, human IgG4 S228P, lambda, V domains shown)
VH: EVQLLQSGAEVKKPGESLKISCKGSGYSFTSYWIGWVRQMPGKGLEWMGIIYPGDSDTRYSPSFQGQVTISADKSISTAYLQWSSLKASDTAMYYCARRGHYGDYFDYWGQGTLVTVSS
VL: SYELTQPPSVSVSPGQTARITCSGDALPKKYAYWYHQKSGQAPVLVIYEDRRRPSEIPERFSGSSSGTMATLTITGAQVEDEGVYFCYSRDRAGNQRVFGGGTQLTVLG
notes: pH-dependent anti-C2 antibody from a phage display library
Kd (human C2 N327A): 37.5 nM
Kd (human C2 D419A): 10.5 nM
Kd (human C2 V465A): 16.3 nM
Kd (human C2 S469A): 21.4 nM
